Measured values as given in publication PMC4491210.

Key:
Cys = details: cited from earlier work
Cys92 = Cys92 (UniProt position 92, NGCSYCERFKK); assay: UV-vis; details: 25 °C; 200 mM NaCl; 10 mM Tris, 10 mM sodium citrate, 1 mM EDTA; Reduced protein referenced to oxidized protein; about 20 µM protein
Cys89 = Cys89 (UniProt position 89, FGRNGCSYCER); assay: UV-vis; details: 25 °C; 200 mM NaCl; 10 mM Tris, 10 mM sodium citrate, 1 mM EDTA; Reduced protein referenced to oxidized protein; about 20 µM protein
[1] = molecular target: HP0377 lacking its own signal sequence (residues 25-221 of native HP0377) with a C-terminal 6 His tag (Helicobacter pylori 26695); assay: cross-linking; glutaraldehyde 0.001-0.1 % v/v, HP0377 2.5 mg/ml, room temperature, 20 min, 0.05 M bicine-NaOH pH 8.5, 0.1 mM DTT, 0.4 M NaCl, quenched with ethanolamine-HCl; SDS-PAGE; monomer to dimer
[2] = molecular target: HP0377 lacking its own signal sequence (residues 25-221 of native HP0377) with a C-terminal 6 His tag (Helicobacter pylori 26695); assay: SEC; Superdex75 HiLoad 16/600, 20 mM Tris pH 8, 150 mM NaCl, absorbance at 280 nm, calibrated with Bio-Rad Gel Filtration Standard; monomer and dimer peaks

Substance | pKa (Cys) | also measured
CcmG (DsbE) (Escherichia coli) | 6.8 | 
DsbA (Escherichia coli) | 3.5 | 
DsbC (Escherichia coli) | 4.1 ± 0.3 | 
HP0377 (CcmG/DsbE/ResA-like thiol:disulfide oxidoreductase) (Helicobacter pylori 26695) |  | pKa (Cys92): 9.23 ± 0.21; pKa (Cys89): 3.56 ± 0.11
HP0377 lacking its own signal sequence (residues 25-221 of native HP0377) with a C-terminal 6 His tag (domain or fragment) |  | stoichiometry N [1]: 2; stoichiometry N [2]: 2
ResA (Bacillus subtilis) | 8.8 | 
